Several values for one entry are separate records, joined by “and”; a condition that tells them apart may be missing. Equal values may be shown once.

The values below come from PMC7870927, “Mechanism of the small ATP-independent chaperone Spy is substrate specific” (Nature Communications, 2021).

Test [1] concerns the target Im7 (native) (Escherichia coli) (UniProt Q03708). Conditions: cited from earlier work.
The target in test [2] is Fyn SH3 (native) SH3 (UniProt P06241). Conditions: cited from earlier work.
Sequence of Fyn SH3 (native) SH3 (P06241 82-143): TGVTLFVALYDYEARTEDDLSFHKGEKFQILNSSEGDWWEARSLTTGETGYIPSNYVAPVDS
In test [3] the target is Fyn SH3 (unfolded) SH3 (UniProt P06241). To be noted: cited from earlier work.
Sequence of Fyn SH3 (unfolded) SH3 (P06241 82-143): as above
The target of test [4] is Im7 (intermediate and unfolded states) (Escherichia coli) (UniProt Q03708). To be noted: cited from earlier work.
Sequence of Im7 (intermediate and unfolded states) (Escherichia coli) (Q03708 whole entry): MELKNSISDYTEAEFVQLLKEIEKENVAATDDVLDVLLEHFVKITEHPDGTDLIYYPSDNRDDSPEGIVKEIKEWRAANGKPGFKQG
For test [5], the target named is T1, apoflavodoxin from Anabaena PCC 7119, wild type (Anabaena PCC 7119, UniProt P0A3E0 3-170).
T1 construct: flavodoxin (apo form, without FMN) from Anabaena PCC 7119; gene codon-optimised, synthesised by GenScript; The same protein was used native and urea-denatured (5 M urea, then diluted: state U*); the assays tell the two apart; [U-2H,15N,13C]-labelled for the NMR titration; also called AnFld; AnFld WT; source: E. coli BL21 (DE3), purified (Ni-His Trap, ULP1 cleavage, HiTrap Q, Superdex 75; …)
T1 sequence: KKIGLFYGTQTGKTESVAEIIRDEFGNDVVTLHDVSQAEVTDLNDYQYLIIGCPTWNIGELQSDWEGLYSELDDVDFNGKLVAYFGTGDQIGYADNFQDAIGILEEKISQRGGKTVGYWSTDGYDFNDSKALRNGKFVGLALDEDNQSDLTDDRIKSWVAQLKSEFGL
In words: other fluorescence titration; stopped-flow refolding: AnFld denatured in 5 M urea diluted 11.5-fold (0.09 µM final) into HN buffer (40 mM HEPES-KOH pH 7.5, 100 mM NaCl) with Spy dimer, 25 °C; normalised initial tryptophan fluorescence against Spy dimer concentration, one-site binding model; non-native state U* of AnFld. Conditions: both partners purified.

For test [6], the target named is T2, apoflavodoxin from Anabaena PCC 7119, wild type (Anabaena PCC 7119, UniProt P0A3E0 3-170).
T2 chain: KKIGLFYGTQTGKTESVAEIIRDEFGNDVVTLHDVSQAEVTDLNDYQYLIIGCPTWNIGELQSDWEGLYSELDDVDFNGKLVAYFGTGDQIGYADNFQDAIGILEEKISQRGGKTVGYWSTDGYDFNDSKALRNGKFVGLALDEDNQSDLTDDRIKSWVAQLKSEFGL
The test can be described thus: initial fluorescence from kinetic fits.

Test [7] concerns the target T3, apoflavodoxin from Anabaena PCC 7119, L105A I109A double mutant (Anabaena PCC 7119, UniProt P0A3E0 3-170, L105A | I109A).
T3 construct: flavodoxin (apo form) from Anabaena PCC 7119 with the two destabilising mutations L105A and I109A; also called AnFld 2A; AnFld2A; source: E. coli BL21 (DE3), purified (same protocol as AnFld WT); not shown: His6, N-terminal, cleaved; SUMO, N-terminal, cleaved
T3 sequence: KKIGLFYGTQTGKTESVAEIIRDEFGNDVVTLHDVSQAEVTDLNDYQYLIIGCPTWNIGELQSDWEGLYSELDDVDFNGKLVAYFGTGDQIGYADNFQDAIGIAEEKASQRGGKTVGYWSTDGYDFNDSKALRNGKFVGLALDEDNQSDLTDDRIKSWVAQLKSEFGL
In words: ITC + other: kinetic unfolding experiments; ITC: 1.2 mM Spy dimer in the syringe, 100 µM AnFld 2A in the cell; 40 mM HEPES-KOH pH 7.5, 100 mM NaCl; one-site or two-site models; two binding-competent conformations of AnFld 2A. To be noted: both partners purified.

In test [8] the target is T4, apoflavodoxin from Anabaena PCC 7119, L105A I109A double mutant (Anabaena PCC 7119, UniProt P0A3E0 3-170, L105A | I109A).
T4 sequence: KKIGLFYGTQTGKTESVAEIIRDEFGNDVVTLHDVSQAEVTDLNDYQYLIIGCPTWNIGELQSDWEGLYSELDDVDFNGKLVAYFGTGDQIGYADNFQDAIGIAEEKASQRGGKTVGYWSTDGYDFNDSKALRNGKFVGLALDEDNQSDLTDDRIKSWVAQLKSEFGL
In words: ITC; first site (K1). A general note: ITC needs no label: the signal is the heat of the interaction.

In test [9] the target is T1, apoflavodoxin from Anabaena PCC 7119, …. The test can be described thus: other fluorescence titration; equilibrium titration of Spy dimer into 17.2 µM native AnFld WT (square hyperbola, one-site) or 10 µM AnFld 2A (quadratic tight-binding model) in HN buffer, 25 °C; intrinsic tryptophan fluorescence at 340 nm; apparent. Conditions: both partners purified.
The target in test [10] is T3, apoflavodoxin from Anabaena PCC 7119, …. Described as above. Conditions: both partners purified.
In test [11] the target is T4, apoflavodoxin from Anabaena PCC 7119, …. In words: ITC; second site (K2).
Test [12] concerns the target T2, apoflavodoxin from Anabaena PCC 7119, …. The test can be described thus: ITC; 10 °C.
In test [13] the target is T5, apoflavodoxin from Anabaena PCC 7119, F98N mutant (Anabaena PCC 7119, UniProt P0A3E0 3-170, F98N).
T5 construct: also called AnFld F98N; I^T mimic; source: E. coli BL21 (DE3), purified (same protocol as AnFld WT); not shown: His6, N-terminal, cleaved; SUMO, N-terminal, cleaved
T5 sequence: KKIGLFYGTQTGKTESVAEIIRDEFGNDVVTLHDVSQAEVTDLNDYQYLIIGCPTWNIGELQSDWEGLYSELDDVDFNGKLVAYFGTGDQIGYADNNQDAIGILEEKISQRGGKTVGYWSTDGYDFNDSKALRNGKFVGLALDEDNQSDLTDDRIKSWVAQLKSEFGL
The test can be described thus: ITC; 550 µM Spy dimer in the syringe, 50 µM AnFld F98N in the cell; 40 mM HEPES-KOH pH 7.5, 100 mM NaCl; 10 °C; one-site binding model. To be noted: both partners purified.

In test [14] the target is T6, apoflavodoxin from Anabaena PCC 7119, F98N mutant (Anabaena PCC 7119, UniProt P0A3E0 3-170, F98N).
T6 sequence: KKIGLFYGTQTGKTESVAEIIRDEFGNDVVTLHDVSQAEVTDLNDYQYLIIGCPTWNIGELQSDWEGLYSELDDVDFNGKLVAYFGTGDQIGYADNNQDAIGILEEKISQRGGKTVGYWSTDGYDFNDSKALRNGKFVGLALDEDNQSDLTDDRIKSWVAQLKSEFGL
The test can be described thus: ITC; 10 °C.

Test [15] has as its target T7, apoflavodoxin from Azotobacter vinelandii, C69A (Azotobacter vinelandii, UniProt P00324 1-180, C69A).
T7 construct: flavodoxin (apo form) from Azotobacter vinelandii with C69A; The only AzoFld gene that the methods name is C69A; also called AzoFld; AzoFld C69A; source: E. coli BL21 (DE3), purified (same protocol as AnFld WT); not shown: His6, N-terminal, cleaved; SUMO, N-terminal, cleaved
In words: AUC; sedimentation velocity of Spy with AnFld or AzoFld, 48,000 r.p.m., absorbance at 280 nm; 2DSA, genetic algorithm, Monte Carlo. To be noted: both partners purified.

The target of test [16] is T1, apoflavodoxin from Anabaena PCC 7119, …. The test is described as above. To be noted: both partners purified.
Test [17] has the same target. The test can be described thus: ITC; 550 µM Spy dimer in the syringe, 50 µM AnFld WT in the cell; 40 mM HEPES-KOH pH 7.5, 100 mM NaCl; MicroCal iTC200; temperature not shown. Conditions: both partners purified.

T7 sequence (P00324 whole entry C70A): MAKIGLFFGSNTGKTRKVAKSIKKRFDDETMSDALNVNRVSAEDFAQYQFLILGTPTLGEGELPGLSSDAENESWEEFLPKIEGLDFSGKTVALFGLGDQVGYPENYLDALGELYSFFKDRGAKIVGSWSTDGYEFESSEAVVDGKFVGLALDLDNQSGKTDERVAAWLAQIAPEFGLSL
Sequence of Im7 (native) (Escherichia coli) (Q03708 whole entry): as the sequence (Q03708 whole entry) above

Spy (from UniProt P77754): the Kd in test [1] is 20.5 µM; in [2] it was 50 µM; in test [3], 2.9 µM; in [4], 4.7 µM.

B1: Spy (small bacterial ATP-independent chaperone) (natural protein, UniProt P77754 24-161, looked up)
chain: ADTTTAAPADAKPMMHHKGKFGPHQDMMFKDLNLTDAQKQQIREIMKGQRDQMKRPPLEERRAMHDIIASDTFDKVKAEAQIAKMEEQRKANMLAHMETQNKIYNILTPEQKKQFNANFEKRLTERPAAKGKMPATAE
notes: chaperone Spy; Used and counted as a dimer throughout ('Spy dimer'); also called Spy dimer; SpyD; source: E. coli BL21 (DE3), purified (Ni-His Trap, ULP1 cleavage, HiTrap Q, HiLoad Superdex 75); not shown: His6, N-terminal, cleaved; SUMO, N-terminal, cleaved
For the molecule B1, the Kd came out at 0.35 µM in test [5]; 17.7 µM in test [6]; 40 µM in [9]; 0.1 µM in test [10]; 1.8 µM in test [13]; 28.2 µM in [17]. In test [7], the “KD of one of two binding-competent conformations of AnFld 2A” value was 0.23 µM and 0.38 µM. The Ka in test [8] amounted to 2.65e+06 M⁻¹; in [11] it was 4.37e+06 M⁻¹; in [12] it was 35500 M⁻¹; in test [14], 801000 M⁻¹. Also, the stoichiometry N (in general, a count of units in the complex or per binding partner) was determined as 1 AzoFld per Spy dimer in [15] and 1 AnFld per Spy dimer in test [16].
